Results as given in the RNAGym collection of RNA variant scans (doi:10.1073/pnas.2313332121).
Fewer inactive variants are shown than the library holds.

B1: TPR 5TU (parent)
chain: GGAUCUUCUCGAUCUAACAAAAAAGACAAAUCUGCCACAAAGCUUGAGAGCAUCUUCGGAUGCAGAGGCGGCAGCCUUCGGUGGCGCGAUAGCGCCAACGUUCUCAACUAUGACACGCAAAACGCGUGCUCCGUUGAAUGGAGUUUAUCAUG

Variants of: B1
Assay: polymerase ribozyme fitness, log enrichment relative to wild type (log ratio); higher = more active; in vitro selection for triplet polymerase activity
How it was run: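 Mutant libraries of both subunits of a heterodimeric triplet polymerase ribozyme were PCR-built, transcribed, and selected once in triplicate, with frozen incubation at −7 °C and capture of gel-excised extended constructs on streptavidin beads before RT-PCR. Illumina sequencing of input and output libraries was filtered to genotypes with ≥10 input reads and ≥1 read per output. Fitness is the logarithm of genotype enrichment over wild-type enrichment, using inverse-variance-weighted replicate averages. The logarithm is base 2.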

Variant	polymerase ribozyme fitness (log ratio)
GGAUGUUCUCGGUCUAACAAAAAAGACAAAUCUGCCACAAAGCUUGAGAGCAUCUUCGGAUGCAGAGGCGGCAGCCUUCGGUAGCGCGAUAGCACCAACGUUCUCAACUAUGACACGCAAAACGCGUGCUCCGUUGAAUGCAGUUUAUCAUG [C5G A12G G83A G94A G141C]	-4.19
GGAUAUGCUCGAUCUAACAAAAAAGACAAAUGUGCCACAAAGCUUGAGAGCAUCUUCGGAUGCAGAGGCGGCAGCCUUCGGUGGCGCGAUAGCGCCAACGUUCUCAACUAUGACUCGCAAAACGCGUGCUCCGUUGAAUGGAGUUCAUCAUG [C5A U7G C32G A115U U146C]	≤ -4.2
GGAUGUUCUCGAUCUAACAAAAGAGACAAAUCUGCCACAAAGCUUGAGUGCAUCUUCGGAUGCAGAGGCGGCAGCCGUCGGUGGCACGAUAGCGCCAACGUUCUCAACUAUGACACGCAAAACGCGUGCUCCGUUGGAUGGAGUUUAUCAUG [C5G A23G A49U U77G G86A A137G]	≤ -4.2
GGAUGUUCUCGAUGUAACAAAAAAGACAAAUCUGCCACAAAGCUUGAGGGCAUCUUCGGAUGCAGAGGCGGCAGCCUUCGGUGGCGCGAUAGCGCCAACGUUCUCAACUAUGACACGCAAAACGCGUGCUCCGUUGAAUGGAGUUUAUCAUG [C5G C14G A49G]	-3.17
GGAUGUUCUCGAUCUAACAAAAAAGACAAAUCUGCCACAAAGCUUGAGAGCCUCUUCAGAUGCAGAGGCGGCAGCCUUCGGUGGCGCGAUAGAGCCAACGUUCUCAACUAUGACACGUAAAACGCGUGCUCCGUUGAAUGGAGUUUAUCAUG [C5G A52C G58A C93A C118U]	-3.09
GGAUGUUCUGGAUCUAACAAAAAAGACAAAUCUGCCACAAAGCUUGAGAGCAUCUUCGGAUGCAGAGGCGGCAGCCUUCGGUGGCGCGAUAACGCCAACGUUCUCAACUAUGACACGCAAAAUGCGUGCUCCGUUGACUGGAAUUUAUCAUG [C5G C10G G92A C123U A138C G143A]	≤ -4.2
GGAUGUUCUCGAUCUAACAAAAAAGACAAAUCUGCCACAAAGCUUGAGGGCAUCUUCGGAAGCAGAGGCGGCAGCCUUCGGUGGGGCGAUAGCGCCAACGUUCUCAACUAUGACACGCAAAACGCGUGCUCCGUUGAAUGGAGUUUAUCAUG [C5G A49G U61A C85G]	≤ -4.2
GGAUGUUCUCGAUCUAACAAAAAAGACAAAUCUGCCACAACGCUUCAGAGCAUCUUGGGUUGCAGAGCCGGCAGCCUUCGGUGGCGCGAUAGCGCCAACGUUCUCAACUAUGACACGCAAAACGCGUGCUCCGUAGAAUGAAGUUUAUCAUG [C5G A41C G46C C57G A60U G68C U135A G141A]	≤ -4.2
GGAUGUUCUCGAUCUAACAAAAAUGACAAAUCUGCCACAAAGCUUGAGAGCAUCUUCGGAUGCAGAGGCGGCAGCCUUCGCUGGCGCGAUAGCGCCAACGUUCUCAACUAUGACACGCAAAACGCGUGCUCCGUUGAAUGGAGUUUAUCAUG [C5G A24U G81C]	-0.313
GGAUGUUCUCGAUCUAACUAAAAAGACAAAUCUGCCUCAAAGCUAGAGAGCAUCUUCGGAAGCAGAGGCGGCAGCCUUCGGUGGCGUGAUAGCGCCAACGUUCUCAACUAUGACACGCAAAACGCGUGCUCCGUUGAAUGGAGUUUAUCAUG [C5G A19U A37U U45A U61A C87U]	≤ -4.2
GGAUAUUCUCGACCUAACAAAAAAGACAAAUCUGCCAUAAAGCUUGAGAGCAUCUUCGGAUGCAGAGGCGGCAGCCUUCGGUGGCGCGAUAGCGCCAACGUUCUCAACUAUGACACGCAAGACGCGCGCUCCGUUGAAUGGAGUUUAUCAUG [C5A U13C C38U A121G U127C]	-4.07
GGAUGUUCUGGAUCUAACAAAAAAGCCAAAUCUGCCACAAAGCUUGAGAGCAUCUUCGGAUGCAGAGGCGGCAGCCUUCGGUGGCGCGAUAGUGCCAACGUUCUCGACUAUGACACGCAAAACGCGUGCUCCGUUGAAUUGAGUUUAUCAUG [C5G C10G A26C C93U A106G G140U]	≤ -4.2
GGAUAUUCCCGAUCUAACAAAAAAGACAAAUCUGCCACAAAGCUUGAGAGCAUCUUCGGAUGCAGAGGCGGCAGCCUUCGGUGGAGCGAUAGCGCCAACGUUCUCAACUAUGACACGCAAAACGCGUGCUCCGUUGAAUGGAGUUUAUCAUG [C5A U9C C85A]	-2.68
GGAUAUUCCGGAUCUAACAAAAAAGUCAAAUCUGCCACAAAGCUUGAGAGCAUCUUCGGAUGCAGAGGCGGCAGCCUUCGGUGGCGCGAGAGCGCCAACGUUCUCAACUAUGACACGCAAAACGCGUGCUCCGUUGGAUGGUGUUUAUCAUG [C5A U9C C10G A26U U90G A137G A142U]	≤ -4.2
GGAUGUUCUAAAUCUAACAAAAAAGACAAUUCUGCCACAAAGCUUGAGCGCAUCUUCGGAUGCAGAGGCGGCAGCCUUCGGUGGCGCGAUAGUGCCAACGUUCUCAACUAUGACACGCAAAACGCGUGCUCCGUUAAAUGGAGUUUAUCAUG [C5G C10A G11A A30U A49C C93U G136A]	≤ -4.2
GGAUGUUCUCGAUCUAACAGAAAAGACAAAUCUGCCACAAAGCUUGAGAGCAUCUUCGGAUGCAGAGGCGGCAGUCUUCGGUGGCGUGAUAGCGCCAACGUUCUCAACUAUGACACGCGAAACGCGUGCUCCGUUGAAUGGGGUUUAUCAUG [C5G A20G C75U C87U A119G A142G]	-3.16
GGAUGUUCUCGAUCUAACAAAAAAGACAAAUCUGCCACUAAGCUUGAGAGCAUCUUAGUAUGCAGAGGCGGCAGCCUUCGGUUGCGCGAUAGCGCCAACGUUGUCAACUAUGACAUGCAAAACGCGUGCUCCGUUGAAUGGAGUUUAUCAUG [C5G A39U C57A G59U G83U C103G C116U]	≤ -4.2
GGAUGUUCUCGAUCUAACAAAAAAGACAAAUCUGCCACGAAGCUUGAGAGUAUCUUCGGAUGCAGAGGCGGCAGCCUUCGGUGGCGCGAUAGCGCCAACGUUCUCGACUAUGACACGCAAAACGCGUGCUCCGUUGAAUGGAGUUUAUCAUG [C5G A39G C51U A106G]	≤ -4.2
GGAUGUUUUCGUUCUAACAAAAAAGAGAAAUCUGCCACAAAGCUUGAGAGCAUCUUCGCAUGCAGGGGCGGCAGCCUCCGGUGGCGCGAUAGCGCCAACGAUCUCAACUAUGACACGCAAAACGGGUGCUACGUUGAACGGAGUUUAUCAUG [C5G C8U A12U C27G G59C A66G U78C U101A C125G C131A U139C]	-3.97
